Test [1] has as its target T1, CD66c (Cluster of Differentiation 66c) on cells (UniProt P40199 35-320, limits assumed).
T1 construct: whole, on cells; also called CEACAM6; CEACAM 6
T1 sequence (looked up): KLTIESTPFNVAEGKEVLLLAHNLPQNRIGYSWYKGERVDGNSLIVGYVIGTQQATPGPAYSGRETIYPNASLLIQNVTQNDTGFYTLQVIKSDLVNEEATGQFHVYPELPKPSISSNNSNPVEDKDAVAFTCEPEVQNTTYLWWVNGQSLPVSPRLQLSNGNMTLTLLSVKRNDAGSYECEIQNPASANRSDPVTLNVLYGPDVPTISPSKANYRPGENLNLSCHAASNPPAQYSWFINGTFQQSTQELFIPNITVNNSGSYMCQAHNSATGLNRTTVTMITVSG
Nature of the test: flow cytometry on CD66c-positive A549 cells, FITC anti-human IgG. As to the method:
Each expressed 96 recombinant humanized antibody was poured and reacted in a test tube containing the same amount […] of CD66c-positive A549 non-small-cell lung cancer cell line at 4° C. for 30 minutes, washed with PBS, and treated with FITC-conjugated goat anti-Huma IgG (DiNona Inc, Korea) was added and incubated at 4° C. for 15 minutes. After washing with PBS, the cells were analyzed with a flow cytometer (Stratedigm, S1000EXi) and the results are shown below.
Among the 96 recombinant humanized antibody candidates, eight were firstly selected based on the degree of expression, the presence of aggregation, and the degree of cell binding (Table 9 and Table 10, FIGS. 3A to 3E).
A general note: A flow cytometer gives signals particle by particle.

The target in test [2] is T2, CEACAM1 antigen (Sino Biological, Inc.) (UniProt P13688 35-428).
T2 construct: Bought antigen, coated on the ELISA plate; construct not described; also called CEACAM1 (CD66a) antigen; CD66a
T2 sequence (looked up): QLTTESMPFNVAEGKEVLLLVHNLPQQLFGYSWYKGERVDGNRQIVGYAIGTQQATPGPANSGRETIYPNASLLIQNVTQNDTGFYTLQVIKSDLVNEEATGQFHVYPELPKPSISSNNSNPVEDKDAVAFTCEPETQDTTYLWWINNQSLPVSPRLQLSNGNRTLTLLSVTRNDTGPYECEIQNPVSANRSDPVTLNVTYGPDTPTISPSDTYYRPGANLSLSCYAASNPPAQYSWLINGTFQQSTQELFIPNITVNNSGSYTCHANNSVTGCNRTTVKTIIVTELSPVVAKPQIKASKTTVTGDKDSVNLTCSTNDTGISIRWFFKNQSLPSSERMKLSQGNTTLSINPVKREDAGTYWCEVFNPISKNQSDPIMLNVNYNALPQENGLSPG
Nature of the test: ELISA, CEACAM1 coated 100 ng/well, antibody at 10000.00 ng/ml. On the procedure:
(§1) Antigen CD66c (CEACAM6; Sino Biological, Inc.) and CEACAM1 antigen (Sino Biological, Inc.) were coated on a 96-well plate at a rate of 100 ng per well and then blocked. The primary antibody was diluted 3-fold from 10 ug/ml and bound at 37° C. for 1 hour. […] goat anti-Human Ig-HRP conjugate (Jackson ImmunoResearch) as a secondary antibody was diluted 1:10,000 and incubated at 37° C. for 30 minutes. The washing was carried out at three times between each step, and the TMB reaction was performed, stopped with 1N H₂SO₄ solution at the same amount of TMB solution (100 ul) and then OD value was measured at 450 nm.
For orientation: An ELISA detects its analyte on a solid surface through an enzyme-linked reagent.

Test [3] concerns the target T2, CEACAM1 antigen (Sino Biological, Inc.). Nature of the test: ELISA, CEACAM1 coated 100 ng/well, antibody at 13.72 ng/ml. As to the method:
as §1

Test [4] has the same target. In words: ELISA, CEACAM1 coated 100 ng/well, antibody at 0.17 ng/ml. As to the method:
as §1
(§2) As a result of the experiment, the binding affinities to CD66c antigen of the five kinds of recombinant humanized antibodies selected from among 96 kinds of recombinant humanized antibodies are shown in FIG. 4a, Table 12, FIG. 4b and Table 13. FIG. 4a and Table 12 show the binding capacity of the antibodies to CECACAM6 CD66c) antigen, and FIG. 4b and Table 13 are the results for the CEACAM1 (CD66a) antigen.

For test [5], the target named is T3, Antigen CD66c (CEACAM6; Sino Biological, Inc.) (UniProt P40199 35-320).
T3 construct: Bought antigen, coated on the ELISA plate; construct not described; also called CECACAM6 (CD66c) antigen; CD66c antigen
T3 sequence (looked up): T1 sequence (looked up)
Nature of the test: ELISA, CEACAM6 coated 100 ng/well, antibody at 3333.33 ng/ml. As to the method: as §1, §2

Test [6] concerns the target T3, Antigen CD66c (CEACAM6; Sino …). Nature of the test: ELISA, CEACAM6 coated 100 ng/well, antibody at 10000.00 ng/ml. As to the method:
as §1, §2

For test [7] the target is unchanged. Nature of the test: ELISA, CEACAM6 coated 100 ng/well, antibody at 0.51 ng/ml. As to the method: as §1, §2
Test [8] has the same target. In words: ELISA, CEACAM6 coated 100 ng/well, antibody at 123.46 ng/ml. On the procedure:
as §1, §2

Positions count from the first letter of the chain named.

The values below come from patent publication US20220119518A1 (KUMHO HT, published 2022).

B1: recombinant humanized anti-CD66c antibody Protein ID 3058 (Vk8 + VH11) (antibody, human IgG1, V domains shown)
VH: QVQLVQSGAEVKKPGASVKISCKASGYSFTDYTMHWVKQAPGQNLEWIGLINPFGGSTSYAQKFKGRVTMTRDTSTNTAYMELSRLRSDDTAVYYCVRGDPVRHYYALAYWGQGTLVTVSS
VL: DIQMTQSPSTLSASVGDRVTITCRASENVYGTLNWYQRKPGKAPKLLIYGATNLADGMPSRFSGSGSGTEYTLTISSLQPDDFATYYCQNVLSAPYTFGGGTKLEIK
notes: also called hu 3058; #86
In the case of B1, the “% (% gated × mean), against the chimeric antibody” value (“% (% gated × mean)” below) in test [1] came to 103%. Also, the “% gated” value in test [1] was 72%. Also, in test [1], the “Mean (fluorescence)” value was 645. Besides, the “OD 450 nm” value in test [2] came to 0.42 OD 450 nm; in test [3], 0.05 OD 450 nm; in test [4], 0.04 OD 450 nm; in test [5], 3.18 OD 450 nm; in test [6], 2.87 OD 450 nm; in test [7] it was 0.38 OD 450 nm. Further, in test [8], the “OD 450 nm” value was found to be 2.22 OD 450 nm.

B2: recombinant humanized anti-CD66c antibody Protein ID 3007 (Vk7 + VH6) (antibody, human IgG1, V domains shown)
VH: QVQLVQSGAEVKKPGASMKISCKASGYSFTDYTMNWVKQAPGQNLEWIGLINPFHGGTVSNQRFKVKATLTVDVSTNTAYMELSRLRSDDTAVYYCVRGDPVRHYYALAYWGQGTLVTVSS
VL: B1 VL with R24G, M58V
notes: also called hu 3007; #43
B2: in test [1], the “% (% gated × mean)” value was determined as 88.8%. Further, in test [1], the “% gated” value was determined as 71%. Also, the “Mean (fluorescence)” value in test [1] amounted to 565. The “OD 450 nm” value in test [2] came out at 1.01 OD 450 nm; in test [3], 0.46 OD 450 nm; in test [4], 0.09 OD 450 nm; in test [5], 3.24 OD 450 nm; in test [6], 3.37 OD 450 nm; in test [7], 0.64 OD 450 nm. In addition, the “OD 450 nm” value in test [8] amounted to 2.9 OD 450 nm.

B3: recombinant humanized anti-CD66c antibody Protein ID 2938 (Vk5 + VH7) (antibody, human IgG1, V domains shown)
VH: B2 VH with K38R, N44G
VL: B1 VL with R24G, N34A, M58V, T69R
notes: also called hu 2938
For the molecule B3, the “% (% gated × mean)” value in test [1] is 96%. Besides, in test [1], the “% gated” value came out at 71%. Moreover, the “Mean (fluorescence)” value in test [1] came out at 611. The “OD 450 nm” value in test [2] amounted to 0.32 OD 450 nm; in test [3], 0.06 OD 450 nm; in test [4] it was 0.04 OD 450 nm; in test [5], 3.27 OD 450 nm; in test [6] it was 3.43 OD 450 nm; in test [7], 0.36 OD 450 nm. Further, in test [8], the “OD 450 nm” value is 2.56 OD 450 nm.

B4: recombinant humanized anti-CD66c antibody Protein ID 3043 (Vk8 + VH6) (antibody, V domains shown)
VH: B2 VH
VL: B1 VL
notes: also called hu 3043; #71
As for B4, in test [1], the “% (% gated × mean)” value was found to be 105%. In test [1], the “% gated” value was 69%. Besides, in test [1], the “Mean (fluorescence)” value came out at 686. The “OD 450 nm” value turned out to be 0.91 OD 450 nm in test [2]; 0.43 OD 450 nm in test [3]; 0.08 OD 450 nm in test [4]; 2.95 OD 450 nm in test [5]; 2.73 OD 450 nm in test [6]; 0.49 OD 450 nm in test [7]. In addition, the “OD 450 nm” value in test [8] stood at 2.29 OD 450 nm.

B5: anti-CD66c chimeric antibody 8F5 (antibody, human IgG1, V domains shown)
VH: EVQLQQSGPELVKPGASMKISCKASGYSFTDYTMNWVKQSHGKNLEWIGLINPFHGGTVSNQRFKVKATLTVDVSSNTAYMELLSLTSDDSAVYYCVRGDPVRHYYALAYWGQGTSVTVSS
VL: DIQMTQSPASLSASVGETVTITCGASENVYGTLNWYQRKQGKSPQLLIYGATNLADGMSSRFSGSGSGRQYSLKISSLHPDDVATYYCQNVLSAPYTFGGGTKLEII
notes: also called chimeric 8F5; chi 8F5
As for B5, the “% (% gated × mean)” value in test [1] came out at 100%. The “% gated” value in test [1] is 73%. Also, in test [1], the “Mean (fluorescence)” value was determined as 619. Besides, the “OD 450 nm” value amounted to 1.21 OD 450 nm in test [2]; 0.51 OD 450 nm in test [3]; 0.08 OD 450 nm in test [4]; 3.41 OD 450 nm in test [5]; 3.17 OD 450 nm in test [6]; 0.41 OD 450 nm in test [7]. Also, the “OD 450 nm” value in test [8] came to 2.83 OD 450 nm.
